Laboratory results: the nanobody polyreactivity screen of Harvey et al. (2022)

Assay: yeast display, Sf9 membrane polyspecificity reagent, FACS + sequencing; frameworks hold sequencing errors
In short: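 Galactose-induced (36–48 hours) yeast carrying a synthetic nanobody display library were exposed to 10% biotinylated, detergent-solubilized Sf9 membrane reagent at 4 °C for 1 hour. FACS followed streptavidin microbead enrichment, using low and high (top ~1%) gates for expression (anti-HA) and reagent binding (streptavidin). Colony PCR, MiSeq 2 × 250 sequencing and CDR-length filtering followed. Labels for polyreactivity reflect the gate of origin.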

Q: For “QVQLVESGGGLVQAGGSLRLSCAASGRIFGVNAMGRYRQAPGKERELVADISSGGSTYYADSVKGRFTISRDNAKNTVYLQMNSLNPEDTAVYSCAVDKYVFVSYSFYFEYDYWGQGTQVTVSS”, which “polyreactivity (PSR sort gate)” value is on record?
A: low polyreactivity

Q: Which “polyreactivity (PSR sort gate)” value does the source give for “QVQLVESGGGLVQAGGSLRLSCAASVLTFVDYAMGWYRQAPGKERELVAAITSSGGSITYYADSVKGRFTISRDNAKNTVYLQMNSLKPEDTAVYYCNADYGIYTDSFRGQDYESWGQGTQVTVSS” here?
A: low polyreactivity

Q: With “QVQLVESGVGLVQAGGSLRLSCSASGSTFYTYAMGWYRQAPGKDRELVAAINLRGGRTYYADSVKGRFTISRDTAKNTVYLQMNSRKPEDTAVYYCAAQSIAYYKQIYYLGMDYWGQGTQVTVSS” as the sequence, how does the “polyreactivity (PSR sort gate)” value read?
A: high polyreactivity

Q: For “QVQLVESGGGLVQAGGSLRLSCAASGRTFYRYVMGWYRQAPGKERELVAAIRSSGTSTYYADSVKGRFTISRDNAKNTVYLQMNSLKPEDTAVYYCARDSYRGYVYSLDYWGQGTQVTVSS”, which “polyreactivity (PSR sort gate)” value is on record?
A: high polyreactivity

Q: With “QVQLVESGGGLVQAGGSLRLSCAASGFTFIFNAMGWYREAPGKERELVAAITWGGASTDYADSVKGRFTISRDNAKNTVNLQMKSLKPEDTAVYYCAKDNWDNPRPTSEMDYWGQGTQVTVSS” as the sequence, how does the “polyreactivity (PSR sort gate)” value read?
A: low polyreactivity

Q: For “QVQLVESGGGLVQAGGSLRLSCAASGRIFGYYAMGWYRQAPGKQRELVAAISWSGGRTYYADSVKGRFTISRDNAKNTVYLQMNSLKPEDTAVYYCNKVYRVPITEEYDYWGQGTQVTVSS”, which “polyreactivity (PSR sort gate)” value is on record?
A: high polyreactivity

Q: Which “polyreactivity (PSR sort gate)” value does the source give for “QVQHVESGVGLVQAGGSLRLSCASSGLTFQYYSMGWYRQAPGKERELVAAISRRGGSTYYADSVKGRFTISRDNAKNTVYLQMNSLKPEDTAVYYCARYSYRGTNVRYDYWGQGTQVTVSS” here?
A: high polyreactivity

Q: With “QGQRVESGGGLVQAGCSLRLSSAASGSTFNEYTLGWYRQAPGKERELVAAIRASDGSTFYADTVKGRFTISRDYAKNSVYFQMNSLKPEDTSVYYCPADYYWNDYWGQGTQVTVSS” as the sequence, how does the “polyreactivity (PSR sort gate)” value read?
A: low polyreactivity

Q: For “QVQLVESGGGLVQAGGSLRLSCAASGFTFDANAIGWYRQAPGKERELVAAISSSGGSTYYADSVKGRFTISRDNAKNTVYLQMNSLKPEDTAVYYCAADLAPGRHDYWGQGTQVTVSS”, which “polyreactivity (PSR sort gate)” value is on record?
A: high polyreactivity

Q: Which “polyreactivity (PSR sort gate)” value does the source give for “QVQLVESGGGLVQAGGSLRLICDASGRTFVRYAMGWYRQAPGKERELVAAITRSASTYYADSVKGRFTISRDNAKNTVYLQMNSLKPEDTAVYYCNAGRKYWFGRAGGYDYWGQGTQVTVSS” here?
A: high polyreactivity

Q: With “QVQLVESGGGLVQAGGSLRLSCAASGCIFRYYAMGWYRQAPGKERELVAAISWGGGSTYYADSVKGRCTISRDNAKNTVYLQINSLKPEDTAVYYCNTYTYAWSRSKRGYWGQGTQVTVSS” as the sequence, how does the “polyreactivity (PSR sort gate)” value read?
A: high polyreactivity

Q: With “QVQLVESGGGLVQAGGSLRLSCAASGFIFGSYAMGWYRQAPGKERELVAAINWSGGSTYYADSVKGRFTISRDNAKNTVYLQMNSLKPDDTAVYYCAADRTYYSFLYYPWVDFDYWGQGTQVTVSS” as the sequence, how does the “polyreactivity (PSR sort gate)” value read?
A: high polyreactivity

Q: With “QVHLVESGGGLVQAGGSLRLSCAASGRIFGYYAMGWYRQAPGKERELVARISSSGGSTYYADSVKGRFTISRDNAKNTVYLQMNSLKPEDTAVYYCNTASNRYPGWRAEFDYWGQGTQVTVSS” as the sequence, how does the “polyreactivity (PSR sort gate)” value read?
A: low polyreactivity

Q: With “QVQLVESGGGLVQAGGSLRLSCAASGSTFYTNAMGWYRQAPGKEREFVAAISWSGSSTYADSVKGRFTISRDNAKNTVYLQMNSLKPEDTAVYYCSADWFKLRTDYYWGQGTQVTVSS” as the sequence, how does the “polyreactivity (PSR sort gate)” value read?
A: low polyreactivity

Q: Which “polyreactivity (PSR sort gate)” value does the source give for “QVQLVESVRGLVQAGGSLPLSCAASGIIISSYAIGWYRQAPGKESEMVADIRSGGSTNYADSVKGRFTISRDNAKNNVYLQMNSLKPEDTAVYYCIADTFQWWDIADVYVIVKYGYWGQGTQVTVSS” here?
A: low polyreactivity

Q: Which “polyreactivity (PSR sort gate)” value does the source give for “QVQLVESGGGLVQAGGSLRLSCAASGSTFRRYAMGWSRQAPGKVRELVAAISRTGRTNYADSVKGRFTISRDNAKYTVYLQMNSLKPEDTAFDYCAAKSSTKQRKYYWGQGTQVTVSS” here?
A: high polyreactivity

Q: For “QVQLVESGGGLVQAGGSLRLSCAASGSIIQQYDKGWYRQAPGKHREFVAANSSSGGSTYYADSVKGRFTISRDNAKNTVYLQMNSLKPEDTAVYYCAVDTKGYTYVDYLHGSGEFGYWGQGTQVTVSS”, which “polyreactivity (PSR sort gate)” value is on record?
A: low polyreactivity

Q: With “QVQHVESGGDLVQAGGSLRLSCAASGSTSFHNAMGWDIQAPGKEREFVAAMSGSGDRTNYADSVKGRFTISRDNAKNTVYLQMNSLKPEDTAVYYCAARGQPGRRTSSGFFSGGYWGQGTQVTVSS” as the sequence, how does the “polyreactivity (PSR sort gate)” value read?
A: high polyreactivity

Q: Which “polyreactivity (PSR sort gate)” value does the source give for “QVHLVESGGGLVQAGGSLRLSFAASGSTFYVNAMGWYRQAPGKERELVAAIRYSGGRTYYADSVKGRFTISRDNAKNNVYLQLNRLKPEDTAVYFCAATTYYGGLYTREFDYWGQGTQVTVSS” here?
A: low polyreactivity

Q: Which “polyreactivity (PSR sort gate)” value does the source give for “QVQLVESGGGLVQAGGSLRLSCAASGFIFSTNAMGWYRQAPGKERELVAAISRRGGNTYYADSVKGRFTISRDNAKNTVYLQMNSLKPEDTAVDYCNAVFRSGGLDYWGQGTQVTVSS” here?
A: high polyreactivity

Q: Which “polyreactivity (PSR sort gate)” value does the source give for “QVQLVESGGGLVQAGGSLRLSCAASGLIFATYAMRWYRQAPGKERELVADITTTGSTYYADSVKGRFTISRDNAKNTVYLQMNSLKPEDTAVYYCAAYGRWLTWYDFDYWGQGTQVTVSS” here?
A: high polyreactivity

Q: With “QVQLVESGGGLVQAGGSLRLSCAASGRIFKYNAMGWYRQAPGKERELVAAISSSGGSTYYADSVKGRFTISRDNAKNTVYLQMNSLKPEDTAVYYCAARYAPTLSVYRFYYWGQGTQVTVSS” as the sequence, how does the “polyreactivity (PSR sort gate)” value read?
A: high polyreactivity

Q: Which “polyreactivity (PSR sort gate)” value does the source give for “QVQLVESGGGLVQAGGSLRLSCAASGSIFAVYAMGWYRQAPGKERELVASISRTGTTNYADSVKGRFTISRDNAKNTVYLQMNSLKPEDTAVYYCAADTWGLPDGYWYSEHPEFDYWGQGTQVTVSS” here?
A: low polyreactivity

Q: For “QVQLVESGGGLVQAGGSLRLSCAASGFIFPVNGMGWYRQAPGKERELVAGITRTGTSTYYADSVKGRFTISRDNAKYTVYLQMNSLKPEDTAVYYCAADLYTGRTKYWEFESWGQGTQVTVSS”, which “polyreactivity (PSR sort gate)” value is on record?
A: low polyreactivity

Q: With “QVQLVEAGGGLVQAGGSLRLSCAASVSTLFFNAMGWYRQGTGKERELVAGITDGGNTNYADSVKGRFTISRDNAKNTVYIQMNSLKPEDTAVYYCATDGVNPFYAYDYWGQGTQVTVSS” as the sequence, how does the “polyreactivity (PSR sort gate)” value read?
A: low polyreactivity

Q: With “QVQLVESGGGLVQAGGSLRLSCAASGFTFRYYAMGWYRQAPGKERELVAAITSGDSTYYADSVKGRFTISRDNAKNTVYLQMNSLKPEDTAVYYCNKDRRPTADFGYWGQGTQVTVSS” as the sequence, how does the “polyreactivity (PSR sort gate)” value read?
A: high polyreactivity

Q: Which “polyreactivity (PSR sort gate)” value does the source give for “QVQLVESGGGLVQAGGSLRLSCAASGRTFPGKAMGWYRQAPGKERELVAAISKSSSRTYYADSVKGRFTISRDNAKNTVYLQMNSLKAEDTAVYYCAASSFNNGHRYDYWGQGTQVTVSS” here?
A: high polyreactivity

Q: For “QVQLVESGGRLVQAGGSLRLSCAASGFTFRYYDMRWYRPAPGKVRELVAAISSGGSTDYADSVKGRFTISRDNAKNTVYLQMNSLKPEDTAVYYCAADWWVVYTYDYWGRGTQVTVSS”, which “polyreactivity (PSR sort gate)” value is on record?
A: low polyreactivity

Q: Which “polyreactivity (PSR sort gate)” value does the source give for “QVQLVESGGGLVQAGGSLRLSCAASGFTYLRYAMGWYRQAPGKERELVAAISFSGDTTNYADSVKGRFTISRDNAKNTVYLQMNSLKPEDTAVYYCAASYGGGYYSDRGYYYWGQGTQVTVSS” here?
A: low polyreactivity

Q: For “QVQLVESGGGLVQAGGSLRLSCAASGSIFDTYAMGWYRQAPGKERELVATITRSGARTYYADSVKGRFTISRDNAKITVYLQMNSLKTEDTAVYYCAALYYDDFGYEYDYWGQGTQVTVSS”, which “polyreactivity (PSR sort gate)” value is on record?
A: low polyreactivity

Q: For “QVQLEESGGGLVQAGRSLRLSCAASGRIFWRYVMGWYRQAPGKERELVAAINRNGDNTSYADSVKGRFTISRDTAKNTVYLQMNSLKPEHTEVHYCNADWWWGYGYWGQGTQVSVSS”, which “polyreactivity (PSR sort gate)” value is on record?
A: low polyreactivity

Q: With “QVQLVESGGGLVQAGGSLRLSCAASGRSFWAYAMGWYRQETGTERELVADITTSGGSTNYADSVKGRFTISRDNAKNTVYLQMNSLKPEDTAVYYCNADPTYHVVNCVGYWGHGTQVTVSS” as the sequence, how does the “polyreactivity (PSR sort gate)” value read?
A: low polyreactivity

Q: Which “polyreactivity (PSR sort gate)” value does the source give for “QVQLVESGGGLVQAGGSLRLSCAASGFIFGKNAMGWYRQAPGKERELVAVISWRGSSTYYADSVKGRFTISRDNAKNTVYLQMNSLKPEDTAVYYCAARYPARGTLYYWGQGTQVTVSS” here?
A: low polyreactivity

Q: With “QVQLVESGGGLVQAGGSHRLSCAASGIILYHYAMGWYRQAPGKERELVATITSGGSTNYADSVKGRFTISRDYAKNTVDLQMNSLKPEDTAVYYCAAVPSRYGRYRYYYWGQGTQVTVSS” as the sequence, how does the “polyreactivity (PSR sort gate)” value read?
A: high polyreactivity

Q: For “QVQLVESGGGLVQAGGSLRLSCAASGRTFRYYAMGWYRQAPGKERELVAAITGSGGSTYYADSVKGRFTISRDNAKNTVYLQMHSLKPEDTAVYYCNTYLSRWSGERDYWGQGTQVTVSS”, which “polyreactivity (PSR sort gate)” value is on record?
A: high polyreactivity

Q: With “QVQLVESGGGLVQAGGSLRLSCAASGSTFPQYAMGWYRQAPGKERELVAAISFSGGSTYYADSVKGRFTISRDNAKNTVYLQMNSLKPEDTAVYYCAAELGLAQYYYWGQGTQVTVSS” as the sequence, how does the “polyreactivity (PSR sort gate)” value read?
A: low polyreactivity

Q: Which “polyreactivity (PSR sort gate)” value does the source give for “QVQLVESGGGIVQAGGSLRLTCAASGITFYKYDMGWYRQAPGKDRELVAAISFRGGNTNYADSVKGRFTISRDNAKNTVYLQMNILKPEDTAVYYCAAYSYTWFYEYGYWGQGTQVTVSS” here?
A: high polyreactivity

Q: For “QLQLVETGGGLVQAGASLRLSCAASGSIFVPYAMGWYIQAPGKERELVAAISRGGDTNYADSVKGRFTISRDNAKNTVYLQMISLKPEDTAVYYCNRARHLYSRWHGGYYYWGQGTQVNVSS”, which “polyreactivity (PSR sort gate)” value is on record?
A: low polyreactivity

Q: With “QVQLVESGGGLVQAGGSLRLSCAASGATFSYYAMGWYRQAPGKERELVAAISYSGGSTYYADSVKGRFTISRDNAKNTVYLQMNSLKPEDTAVYYCNARDPYYGDPSSLPDTRSRSDYWGQGTQVTVSS” as the sequence, how does the “polyreactivity (PSR sort gate)” value read?
A: low polyreactivity

Q: Which “polyreactivity (PSR sort gate)” value does the source give for “QVQLVESGGGLVQAGGRLRLSCAASGNIFKRYTMGWYRQAPGKERELVAAISGGDSTNYADSVKGRFTISRDNANNTFYLQMNSLKPEDTAVYYCAAGGLTLWHGYILGYWGQGTQVTVSS” here?
A: low polyreactivity

Q: Which “polyreactivity (PSR sort gate)” value does the source give for “QVQLVESGGGLVQAGGSLRLSCAAAGRISYANAMGWYRQAPGKERELVASITYSAGSTYADSVKGRFTISRDNAKNTVYLQMNSLKPEDTAVYYCAKRPSQHYRSYLMDYWGQGTQVTVSS” here?
A: low polyreactivity

Q: Which “polyreactivity (PSR sort gate)” value does the source give for “HVQLVESGGGLVQAGGSLRLSCAASGGTFYTYVMGWYRPAPGKERELVAAISGSGGSTYYADSVKGRFTISRDNAKNTVYLQMNSLKPEDTAVYYCAAVLYYGDIPYYYWGQGTQVTVSS” here?
A: high polyreactivity

Q: For “QVQLVESGGGLVQAGGSLRLSCAASGITFGYYAMGWSRQAPGKERELVAAINWRGGNTYYADSVKGRFTISRDNAKNTVYLQMNSLKPEDTAVYYCNALYKRYTDYDYWGQGSQVTVSS”, which “polyreactivity (PSR sort gate)” value is on record?
A: high polyreactivity
